Patent publication US11208638

Tests used:
[1] = test system: split-Cas9 (alpha-helical lobe + nuclease lobe) (Streptococcus pyogenes); assay: cell_activity; conditions: HEK293T nucleofected RNP, nocodazole synchronized; 0.6% unsynchronized; WT 34% and 22%
[2] = target: Cas9 nuclease lobe (Streptococcus pyogenes) (UniProt Q99ZW2); assay: filter
[3] = target: Cas9 alpha-helical lobe (Streptococcus pyogenes) (UniProt Q99ZW2); assay: filter; conditions: 5 mM MgCl2, RT
[4] = target: dCas9 D10A,H840A (Streptococcus pyogenes) (UniProt Q99ZW2); assay: EMSA; conditions: 5 mM MgCl2, heparin, RT; PAM NGG
[5] = test system: split-dCas9 (alpha-helical lobe + dNuclease lobe) D10A,H840A (Streptococcus pyogenes); assay: EMSA; conditions: apparent; complex dissociation contributes; 5 mM MgCl2, heparin; PAM NGG

EMX1 sgRNA ; EMX1 locus target was tested, and the activity [1] was < 2 % indels.

For delta-hairpins1-2 sgRNA, the Kd ([2]; 5 mM MgCl2, RT) was > 100 nM.

In the case of delta-spacer-nexus sgRNA, the Kd [3] is reported as > 100 nM.

Substance full-length sgRNA has a Kd ([2]; Example 1, p568 gives range 0.2-0.8 nM) of 0.5 nM.

In the case of “full-length sgRNA ; target dsDNA (55 bp, with PAM)”, the Kd [4] is reported as 0.2 nM and the Kd [5] is reported as 700 nM.
